The source of these data is patent US20140212406.

The target in this data set is plasminogen.

B1: rat single-chain tPA with arginine to serine point mutation at position 276 (R276S), 6xHis-tagged (protein)
chain: HHHHHHSYRATCRDEQTQTTYQQHQSWLRPMLRGNRVEYCRCNSGLAQCHSVPVRSCSEPRCFNGGTCQQALYFSDFVCQCPDGFVGKRCDIDTRATCFEGQGITYRGTWSTAENGAECINWNSSALSQKPYSARRPNAIKLGLGNHNYCRNPDRDVRPWCYVFKAGKYTTEFCSTPACPKGPTEDCYVGKGVTYRGTHSFTTSKASCLPWNSMILIGKTYTAWRANSQALGLGRHNYCRNPDGDAKPWCHVMKDRKLTWEYCDMSPCSTCGLRQYKQPLFSIKGGLFTDITSHPWQAAIFVKNKRSPGERFLCGGVLISSCWVLSAAHCFVERFPPHHLKVVLGRTYRVVPGEEEQTFEIEKYIVHKEFDDDTYDNDIALLQLRSDSSQCAQESSSVGTACLPDPDVQLPDWTECELSGYGKHEASSPFFSDRLKEAHVRLYPSSRCTSQHLFNKTITSNMLCAGDTRTGGNQDVHDACQGDSGGPLVCMIDKRMTLLGIISWGLGCGQKDVPGIYTKVTNYLNWIQDNMKQ
Turning to B1, the “conversion of plasminogen into plasmin (fibrin agarose zymography; PPP-clot lysis)” value was “Whereas sc*-tPA is not able to promote alone the conversion of plasminogen into plasmin, its fibrin cofactor partially brings back its plasminogen activation function”.
